Source: patent US5405758

Biological target: mite allergen fused protein expressed by pAEX201 in E. coli pop2136 (purified recombinant mite allergen fused protein) (Dermatophagoides farinae)
Details: scale: times lower concentration at the inflexion point than the crude mite body antigen

histamine release, percent ratio of the released histamine (HPLC): > 200
Substance: blood cells from a mite asthma patient, washed with Hanks' solution (cells without a defined receptor)
